Measurements from article PMC3433420, “Comprehensive Binary Interaction Mapping of SH2 Domains via Fluorescence Polarization Reveals Novel Functional Diversification of ErbB Receptors” (PLoS ONE, 2012).
Several values for one entry are separate records, joined by “and”; a condition that tells them apart may be missing. Equal entries are not always repeated. Non-standard residues stand in square brackets, D forms with d. No end group written: not given here. pY = N[C@@H](Cc1ccc(OP(=O)(O)O)cc1)C(=O)O; Rhodamine = not defined here

Experiments:
SYK tandem SH2 domains = SYK tandem SH2 domains (human); assay: peptide or protein array; SH2/PTB proteins spotted on aldehyde slides, rhodamine peptide titrated in buffer B (20 mM HEPES, 100 mM KCl, 0.1% Tween-20, 5 mM DTT, pH 7.8), 1 h at room temperature; replicate assays; conditions: both partners purified
BCAR3 SH2 domain = target: T1, BCAR3 SH2 domain (human, UniProt O75815 154-253); assay: as above; conditions: both partners purified
T1 construct: BCAR3, human; source: bacterial expression, purified
T1 sequence (looked up): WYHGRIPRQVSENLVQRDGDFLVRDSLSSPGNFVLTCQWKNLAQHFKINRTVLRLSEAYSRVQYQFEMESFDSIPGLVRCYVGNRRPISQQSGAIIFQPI

Rhodamine-ETDG[pY]VAPLTCSD (reading uncertain) [ErbB2 pY1127 phosphopeptide, rhodamine-labelled, for protein microarrays]
Kd (SYK tandem SH2 domains): 1300 nM and 957 nM
Kd (BCAR3 SH2 domain): 726 nM
